PMC10694668 (The Journal of Biological Chemistry, 2023)

B1: Vkg NC1 domain of the tissue-extracted (endogenous) NC1 hexamer (domain or fragment, Drosophila (endogenous in fly pellet))
chain: APKSRGFIFARHSQSVHVPQCPANTNLLWEGYSLSGNVAASRAVGQDLGQSGSCMMRFTTMPYMLCDITNVCHFAQNNDDSLWLSTAEPMPMTMTPIQGRDLMKYISRCVVCETTTRIIALHSQSMSIPDCPGGWEEMWTGYSYFMSTLDNVGGVGQNLVSPGSCLEEFRAQPVIECHGHGRCNYYDALASFWLTVIEEQDQFVQPRQQTLKADFTSKISRCTVCRRRGN
modifications: sulfilimine cross-links in the tissue-extracted hexamer
notes: collagen IV Vkg (Viking) chain of Drosophila, NC1 domain set free by collagenase; NC1 numbering starts at residue 1511 of Q9VMV5; peptides of the tail after the NC1 domain were not detected; Fly Pellet, DGRC Stock 1661280; also called Viking; Vkg chain; source: purified from Drosophila pellet (collagenase treatment; SEC, Q-sepharose, hydroxyapatite)
B2: Vkg NC1 domain as it stands in the single-chain CVC trimer (domain or fragment, Drosophila)
chain: B1 chain
notes: collagen IV Vkg (Viking) chain of Drosophila, NC1 domain; NC1 numbering starts at residue 1511 of Q9VMV5; Not a free chain: joined on both sides to Cg25c NC1 domains by GSSASSG linkers on the chain of m5; Made a molecule only for the pairs seen in the CVC crystal structure; source: expiCHO-S cells, as a part of the single-chain CVC trimer; purified (anti-FLAG resin, SEC)
B3: Cg25c NC1 domain of the tissue-extracted (endogenous) NC1 hexamer (domain or fragment, Drosophila (endogenous in fly pellet))
chain: LDYLTGILITRHSQSETVPACSAGHTELWTGYSLLYVDGNDYAHNQDLGSPGSCVPRFSTLPVLSCGQNNVCNYASRNDKTFWLTTNAAIPMMPVENIEIRQYISRCVVCEAPANVIAVHSQTIEVPDCPNGWEGLWIGYSFLMHTAVGNGGGGQALQSPGSCLEDFRATPFIECNGAKGTCHFYETMTSFWMYNLESSQPFERPQQQTIKAGERQSHVSRCQVCMKNSS
modifications: sulfilimine cross-links in the tissue-extracted hexamer
notes: collagen IV Cg25c chain of Drosophila, NC1 domain set free by collagenase; NC1 numbering starts at residue 1551 of P08120; Fly Pellet, DGRC Stock 1661280; also called Cg25c chain; source: purified from Drosophila pellet (collagenase treatment; SEC, Q-sepharose, hydroxyapatite)
B4: Cg25c NC1 domain as it stands in the single-chain CVC trimer (domain or fragment, Drosophila)
chain: B3 chain
notes: collagen IV Cg25c chain of Drosophila, NC1 domain; NC1 numbering starts at residue 1551 of P08120; Not a free chain: joined to the Vkg NC1 domain by GSSASSG linkers on the chain of m5 (it stands there twice; the first copy carries the N-terminal FLAG tag); Made a molecule only for the pairs seen in the CVC crystal structure; source: expiCHO-S cells, as a part of the single-chain CVC trimer; …

Columns and labels:
[1] = target: single-chain CVC NC1 trimer (Cg25c-Vkg-Cg25c NC1 domains on one chain, FLAG-tagged, without mEmerald) (Drosophila) (UniProt P08120); assay: SEC; trimer peaks pooled, concentrated to ~10 mg/ml, kept at 4 °C for a month (legend: about 6 months) in tris-buffered saline; peaks also pooled and rerun in tris-buffered saline; trimer to hexamer
[2] = target: B3; assay: SEC; collagenase digest of Drosophila pellet; hexamer peak at 12.99 ml; then Q-sepharose and hydroxyapatite; single band of the sample not boiled cut out, trypsin or chymotrypsin digestion, MS/MS; conditions: both partners purified
[3] = target: B4; assay: crystal structure; recombinant CVC trimer, ~8.5 mg/ml, 0.1 M Na/K phosphate pH 6.5, 0.2 M NaCl, 26% PEG 1000, 22 °C; 1.75 Å; hexamer in the crystal; conditions: both partners purified
[4] = target: the molecule itself; assay: crystal structure; tissue-extracted NC1 hexamer, ~3.5 mg/ml, 35% MPD, 0.1 M NaCl, 100 mM Hepes pH 7.5, 22 °C; 2.98 Å
[5] = target: the molecule itself; assay: crystal structure; recombinant CVC trimer, ~8.5 mg/ml, 0.1 M Na/K phosphate pH 6.5, 0.2 M NaCl, 26% PEG 1000, 22 °C; 1.75 Å; hexamer in the crystal

single-chain CVC NC1 trimer (Cg25c-Vkg-Cg25c NC1 domains on one chain, FLAG-tagged, without mEmerald) (from UniProt P08120 1550-1779; Q9VMV5 1510-1739; P08120 1550-1779)
percent in the hexamer peak [1]: 25%

B1
binding result [2]: binds

B2
binding result [3]: binds

B3
binding result [4]: binds

B4
binding result [5]: binds
